Measured values published in the supplement of paper PMC7877785.
± gives the uncertainty stated by the source.

Assay: self-splicing fitness, log relative to wild type (ln ratio); higher = more splicing; Tetrahymena group I intron in knt gene, E. coli kanamycin selection, DiMSum; sequences stand for … in CUCUCU…GGAGGGAAAAGUUAUCAGGCAUGCACCUGGUAGCUAGUCUUUAAACCAAUAGAUUGCAUCGGUUUAAAAGGCAAGACCGUCAAAUUGCGGGAAAGGGGUCAACAGCCGUUCAGUACCAAGUCUCAGGGGAAACUUUGAGAUGGCCUUGCAAAGGGUAUGGUAAUAAGCUGACGGACAUGGUCCUAACCACGCAGCCAAGUCCUAAGUCAACAGAUCUUCUGUUGAUAUGGAUGCAGUUCACAGACUAAAUGUCGGUCGGGGAAGAUGUAUUCUUCUCAUAAGAUAUAGUCGGACCUCUCCUUAAUGGGAGCUAGCGGAUGAAGUGAUGCAACACUGGAGCCGCUGGGAACUAAUUUGUAUGCGAAAGUAUAUUGAUUAGUUUUGGAGUACUCGUGGUCG
Method in brief: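 Fitness was computed with DiMSum as the error-weighted combination of replicate fold changes, kanamycin versus none, each normalised to wild type. The library randomised all eight intron nucleotides of the P1ex region, with the intron placed in the knt kanamycin-resistance gene on pET-22b(+) in E. coli BL21(DE3). Six replicate transformations were grown overnight at 37°C or 30°C on LB agar with or without 25 μg/mL kanamycin, plus 100 μg/mL carbenicillin, 50 μM IPTG and 0.2% rhamnose. Pooled colonies were amplicon-sequenced on an Illumina HiSeq 2500.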

Row | Sequence | self-splicing fitness (ln) (30 °C) | self-splicing fitness (ln) (37 °C)
1 | CAGUAGCAAUAUUACGUUUC | -3.64 ± 0.3 | -2.69 ± 0.3
2 | CAUAAGCAAUAUUACGAACA | -3.64 ± 0.4 | -2.06 ± 0.38
3 | CAUAAGCAAUAUUACGAAGA | -2.84 ± 0.37 | -3.15 ± 0.33
4 | CAUAAGCAAUAUUACGCAAU | -3.2 ± 0.25 | -2.59 ± 0.36
5 | CAUAAGCAAUAUUACGCGCC | -3.87 ± 0.4 | -1.47 ± 0.34
6 | CAUAAGCAAUAUUACGCGGU | -3.72 ± 0.24 | -2.34 ± 0.17
7 | CAUAAGCAAUAUUACGCUCU | -2.58 ± 0.19 | -1.3 ± 0.12
8 | CAUAAGCAAUAUUACGCUGC | -3.86 ± 0.21 | -3.23 ± 0.3
9 | CAUAAGCAAUAUUACGCUUC | -2.57 ± 0.27 | -2.19 ± 0.3
10 | CAUAAGCAAUAUUACGGACU | -3.64 ± 0.18 | -2.97 ± 0.23
11 | CAUAAGCAAUAUUACGGAGC | -3.94 ± 0.29 | -3.35 ± 0.22
12 | CAUAAGCAAUAUUACGGAGU | -3.14 ± 0.15 | -2.35 ± 0.2
13 | CAUAAGCAAUAUUACGGAUG | -3.14 ± 0.14 | -2.17 ± 0.15
14 | CAUAAGCAAUAUUACGGCGC | -2.68 ± 0.42 | -3.17 ± 0.35
15 | CAUAAGCAAUAUUACGGCUG | -0.37 ± 0.082 | 0.0915 ± 0.12
16 | CAUAAGCAAUAUUACGGGGA | -2.02 ± 0.17 | -2.83 ± 0.23
17 | CAUAAGCAAUAUUACGGGGG | -2.49 ± 0.094 | -2.42 ± 0.14
18 | CAUAAGCAAUAUUACGGUCG | 0.0543 ± 0.064 | -0.0112 ± 0.079
19 | CAUAAGCAAUAUUACGUAAG | 0.111 ± 0.062 | 0.3 ± 0.079
20 | CAUAAGCAAUAUUACGUACC | -1.97 ± 0.3 | 
21 | CAUAAGCAAUAUUACGUACG | -0.507 ± 0.053 | 0.239 ± 0.074
22 | CAUAAGCAAUAUUACGUCAG | -1.26 ± 0.13 | 0.389 ± 0.15
23 | CAUAAGCAAUAUUACGUGAC | -2.48 ± 0.15 | -2.03 ± 0.22
24 | CAUAAGCAAUAUUACGUGGC |  | -1.86 ± 0.25

Row | Sequence | self-splicing fitness (ln) (30 °C) | self-splicing fitness (ln) (37 °C)
25 | CAUAAGCAAUAUUACGUUAA | -2.6 ± 0.23 | -2.92 ± 0.4
26 | CAUCAGCAAUAUUACGAAAU | -4.26 ± 0.2 | -2.66 ± 0.16
27 | CAUCAGCAAUAUUACGAAUG | -3.18 ± 0.16 | -2.05 ± 0.14
28 | CAUCAGCAAUAUUACGACAA | -2.31 ± 0.24 | -1.41 ± 0.21
29 | CAUCAGCAAUAUUACGACGU | -0.965 ± 0.064 | -0.79 ± 0.09
30 | CAUCAGCAAUAUUACGAGAA | -2.12 ± 0.21 | -2.09 ± 0.18
31 | CAUCAGCAAUAUUACGAUCG | -0.307 ± 0.12 | -0.125 ± 0.15
32 | CAUCAGCAAUAUUACGAUUU | -0.551 ± 0.071 | 0.205 ± 0.1
33 | CAUCAGCAAUAUUACGCAUC | -1.34 ± 0.13 | -1.02 ± 0.15
34 | CAUCAGCAAUAUUACGCCGC | -3.14 ± 0.36 | 
35 | CAUCAGCAAUAUUACGCGAG | 0.128 ± 0.083 | -0.05 ± 0.1
36 | CAUCAGCAAUAUUACGCGCC | -2.74 ± 0.27 | -1.05 ± 0.27
37 | CAUCAGCAAUAUUACGCGGG | -2.04 ± 0.13 | -0.735 ± 0.12
38 | CAUCAGCAAUAUUACGCGUU | -2.17 ± 0.1 | -1.54 ± 0.13
39 | CAUCAGCAAUAUUACGGAAA | -2.66 ± 0.23 | -0.167 ± 0.14
40 | CAUCAGCAAUAUUACGGAAC | -2.6 ± 0.19 | -2.54 ± 0.36
41 | CAUCAGCAAUAUUACGGCAU | -2.85 ± 0.15 | -1.66 ± 0.17
42 | CAUCAGCAAUAUUACGGCCG | -0.131 ± 0.093 | -0.0546 ± 0.14
43 | CAUCAGCAAUAUUACGGCGU | -2.3 ± 0.14 | -1.94 ± 0.17
44 | CAUCAGCAAUAUUACGGUAC | -2.95 ± 0.17 | -2.71 ± 0.18
45 | CAUCAGCAAUAUUACGUACA | -2.24 ± 0.14 | -1.92 ± 0.16
46 | CAUCAGCAAUAUUACGUGAC | -3.66 ± 0.19 | -1.2 ± 0.14
47 | CAUCAGCAAUAUUACGUGUC | -3.93 ± 0.19 | -1.08 ± 0.12
48 | CAUCAGCAAUAUUACGUUGC | -3.81 ± 0.27 | -2.84 ± 0.2
